# Data as given in patent US20140322218A1 (Amgen, published 2014).
# Numbering of substitutions follows the chain as printed. Names may count otherwise.
# T1: ckCDH19(1-43)::FLAG::ckCDH19(44-141)::huCDH19(142-249)::ckCDH19(250-776), on 293T cells (human/chicken chimera)
# T1 construct: Entry holds leader (1-43), Flag tag and CDH19 part; leader left out; also called Hu EC2 (chicken backbone)
# T1 chain: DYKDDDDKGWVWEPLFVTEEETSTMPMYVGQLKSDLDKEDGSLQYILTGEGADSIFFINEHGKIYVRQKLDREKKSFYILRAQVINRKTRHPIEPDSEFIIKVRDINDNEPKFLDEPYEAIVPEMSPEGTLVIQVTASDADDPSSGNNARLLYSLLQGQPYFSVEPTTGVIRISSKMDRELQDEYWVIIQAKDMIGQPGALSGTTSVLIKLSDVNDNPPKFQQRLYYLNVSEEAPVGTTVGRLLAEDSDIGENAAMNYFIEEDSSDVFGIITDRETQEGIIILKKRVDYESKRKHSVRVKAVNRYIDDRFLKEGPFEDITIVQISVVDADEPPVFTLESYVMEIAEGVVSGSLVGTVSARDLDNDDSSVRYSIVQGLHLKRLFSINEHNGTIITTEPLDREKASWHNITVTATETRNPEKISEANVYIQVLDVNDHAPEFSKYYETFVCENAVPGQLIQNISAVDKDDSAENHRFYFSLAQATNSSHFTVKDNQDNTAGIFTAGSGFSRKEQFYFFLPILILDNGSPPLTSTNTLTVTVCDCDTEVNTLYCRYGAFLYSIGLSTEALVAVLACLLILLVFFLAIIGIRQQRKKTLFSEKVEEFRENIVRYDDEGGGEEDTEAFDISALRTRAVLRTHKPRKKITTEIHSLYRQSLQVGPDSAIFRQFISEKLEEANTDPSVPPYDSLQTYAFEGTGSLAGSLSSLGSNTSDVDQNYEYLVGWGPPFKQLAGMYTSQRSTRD
# T2: raCDH19(1-43)::FLAG::raCDH19(44-770), on 293T cells (rat)
# T2 construct: Entry holds leader (1-43), Flag tag and CDH19 part; leader left out; also called Ra EC1-5
# T2 chain: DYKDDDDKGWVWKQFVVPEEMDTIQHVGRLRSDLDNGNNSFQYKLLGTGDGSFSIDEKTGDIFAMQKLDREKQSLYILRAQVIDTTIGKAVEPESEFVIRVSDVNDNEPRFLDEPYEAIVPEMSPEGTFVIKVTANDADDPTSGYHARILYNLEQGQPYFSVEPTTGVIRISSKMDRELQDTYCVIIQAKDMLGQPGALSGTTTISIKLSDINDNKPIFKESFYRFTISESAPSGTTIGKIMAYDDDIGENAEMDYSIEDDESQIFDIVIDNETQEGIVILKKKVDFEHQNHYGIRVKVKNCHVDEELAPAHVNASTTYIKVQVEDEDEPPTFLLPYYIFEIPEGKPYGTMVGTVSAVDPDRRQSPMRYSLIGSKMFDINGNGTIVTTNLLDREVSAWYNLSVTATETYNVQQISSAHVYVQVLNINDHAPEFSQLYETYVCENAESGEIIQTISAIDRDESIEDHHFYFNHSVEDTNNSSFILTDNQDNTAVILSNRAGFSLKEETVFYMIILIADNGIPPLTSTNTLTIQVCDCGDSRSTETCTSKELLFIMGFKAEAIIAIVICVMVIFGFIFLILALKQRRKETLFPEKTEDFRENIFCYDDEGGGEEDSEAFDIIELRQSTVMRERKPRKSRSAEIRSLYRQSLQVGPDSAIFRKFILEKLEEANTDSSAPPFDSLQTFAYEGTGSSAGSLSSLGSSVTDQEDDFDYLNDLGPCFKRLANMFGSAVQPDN
# T3: rhCDH19(1-43)::FLAG::rhCDH19(44-772), on 293T cells (rhesus macaque, UniProt Q9H159 44-772 (human entry))
# T3 construct: Entry holds leader (1-43), Flag tag and CDH19 part; leader left out; also called Rh EC1-5
# T3 chain: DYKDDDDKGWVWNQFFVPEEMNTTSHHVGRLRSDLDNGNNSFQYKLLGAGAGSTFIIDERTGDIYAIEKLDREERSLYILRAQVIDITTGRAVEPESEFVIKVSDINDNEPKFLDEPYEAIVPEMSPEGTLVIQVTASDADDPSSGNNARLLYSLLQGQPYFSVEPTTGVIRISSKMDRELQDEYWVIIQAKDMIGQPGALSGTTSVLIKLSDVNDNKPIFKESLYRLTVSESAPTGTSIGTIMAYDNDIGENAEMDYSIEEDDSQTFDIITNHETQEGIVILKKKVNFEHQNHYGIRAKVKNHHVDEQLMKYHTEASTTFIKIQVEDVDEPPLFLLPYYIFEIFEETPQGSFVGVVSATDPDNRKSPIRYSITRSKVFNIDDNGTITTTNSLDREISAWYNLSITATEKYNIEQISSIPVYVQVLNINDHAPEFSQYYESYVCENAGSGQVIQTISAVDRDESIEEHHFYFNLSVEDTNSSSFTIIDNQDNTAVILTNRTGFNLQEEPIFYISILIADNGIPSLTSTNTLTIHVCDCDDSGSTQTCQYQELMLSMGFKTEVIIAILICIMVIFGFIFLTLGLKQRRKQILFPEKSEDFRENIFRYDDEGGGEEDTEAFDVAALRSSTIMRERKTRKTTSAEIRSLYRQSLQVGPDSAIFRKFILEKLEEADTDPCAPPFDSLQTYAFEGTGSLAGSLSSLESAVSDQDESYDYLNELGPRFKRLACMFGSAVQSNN
# B1: anti-CDH19 antibody 2G6 (Ab ID 13588) (antibody, human IgG1, lambda, V domains shown)
# VH: QVQLVESGGGVVQPGRSLRLSCAASGFTFSSYGMHWVRQAPGKGLEWVAFIWYDGSNKYYADSVKDRFTISRDNSKNTLYLQMKSLRAEDTAVYYCARRAGIIGTIGYYYGMDVWGQGTTVTVSS
# VL: SYELTQPPSVSVSPGQTASITCSGDRLGEKYTCWYQQRPGQSPLLVIYQDTKRPSGIPERFSGSNSGNTATLTISGTQAMDEADYYCQAWDSSTVVFGGGTKLTVLG
# B2: hu anti-<huCDH19> 23A10.3 (1-474)(L92Q) VH::huIgG1z / 23A10.3 (1-231)(C42S) VL::huLLC-C2 (Ab ID 14077) (antibody, V domains shown)
# VH: B1 VH with S31R, M34I, F50V, D66G, K84N, T91S, I103P, I106T
# VL: B1 VL with T32V, C33S, R38K, L44I, T51N, R53W
# notes: Engineered variant of 23A10
# B3: hu anti-<huCDH19> 4B10 VH::huIgG1z / 4B10 VL::huKLC (Ab ID 13590) (antibody, V domains shown)
# VH: QVQLVESGGGVVQPGRSLRLSCAASGFTFSSYDMHWVRQAPGKGLEWVAVISYDGTNEYYADSVKGRFTISRDTSKNTLYLQMNSLRAEDTAVYYCARERYFDWSFDYWGQGTLVSVSS
# VL: EIVLTQSPGTLSLSPGERATLSCRASQSVSNTYLAWYHQRPGQAPRLLIYGASSRATGIPDRFSGSGSGTDFALTISSLEPEDFAVYYCQQYSNSWTFGQGTKVEIKR
# B4: hu anti-<huCDH19> 4A9 VH::huIgG1z / 4A9 VL::huLLC-C1 (Ab ID 13589) (antibody, V domains shown)
# VH: QVQLQESGPGLVKPSETLSLTCTVSGGSISGYYWSWIRQPPGKGLEWFAYFSYSGSTNYNPSLKSRVTLSVDTSKNQFSLKLSSVTAADTAVYYCARNWAFHFDFWGQGTLVTVSS
# VL: QSVLTQPPSVSGAPGQRVTISCTGSSSNIGTGYAVHWYQQFPGTAPKLLIYGNNNRPSGVPDRFSGSKSGTSASLAITGLQAEDEADYYCQSYDSRLSGWVFGGGTKLTVLG
# notes: Recombinant fully human IgG1
# B5: hu anti-<huCDH19> 25F8.1 (1-469)(F90Y) VH::huIgG1z / 25F8.1 (1-235)(K45Q,S102A,D111E) VL::huLLC-C2 (Ab ID 14096) (antibody, V domains shown)
# VH: QVQLVQSGAEVKKPGASVKVSCKASGYTFTSYYIHWVRQAPGQGLEWMGIINPSGGSTRYAQKFQGRVTMTRDTSTSTVYMELSSLRSEDTAVYYCARGGIQLWLHFDYWGQGTLVTVSS
# VL: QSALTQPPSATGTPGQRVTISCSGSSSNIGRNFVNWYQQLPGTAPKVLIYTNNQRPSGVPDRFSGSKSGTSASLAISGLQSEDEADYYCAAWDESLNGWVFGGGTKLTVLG
# notes: Engineered variant of 25F8
# B6: hu anti-<huCDH19> 26D1.1 VH::huIgG1z / 26D1.1 VL::huLLC-C2 (Ab ID 13882) (antibody, V domains shown)
# VH: B5 VH with G26R, I34M, H35S, N52H, S57D, R59T, R72G, Q102K
# VL: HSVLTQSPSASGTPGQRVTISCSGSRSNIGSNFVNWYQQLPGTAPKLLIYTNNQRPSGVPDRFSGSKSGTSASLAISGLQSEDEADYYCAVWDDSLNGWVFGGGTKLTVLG
# B7: anti-CDH19 antibody 4A2 (Ab ID 13592) (antibody, human IgG1, kappa, V domains shown)
# VH: QVQLQESGPGLVKPSQTLSLTCTVSGGSISSSGYYWSWIRQHPGKGLEWIGYIYYTGSAYYNPSLKSRVTISVDTSKNQFSLKLSSVTAADTAVYYCARDGSSGWYFQYWGQGTLVTVSS
# VL: EIVLTQSPGTLSLSPGERATLSCRASRNISSSYLAWYQQKPGQAPRLLIYGPSSRATGIPDRFSGSGSGTDFTLTISRLEPEDFTVYYCQQYGSSFTFGPGTKVDIKR
# Molecular target: T4, huCDH19(44-772), Flag-tagged, on 293T cells (human, UniProt Q9H159 44-772)
# T4 construct: Expressed with native leader (1-43) followed by a Flag tag; leader left out; also called Hu EC1-5
# Assay: FACS, transfected 293T
# Procedure: (§1) The following binding assay was completed in presence of 2 mM CaCl2. […] Cells were then washed one time and the amount of cell associated Alexa647-labelled Ab was quantitated by flow cytometry. The experiments included mock transfected controls.
row,binding result,Binder
1,binds,B1
2,binds,B2
3,binds,B3
4,binds,B4
5,binds,B5
6,binds,B6

# Molecular target: T1, ckCDH19(1-43)::FLAG::ckCDH19(44-141)::hu …
# Assay: FACS, transfected 293T
# Procedure: as §1
row,binding result,Binder
1,no binding (tested: 5 ug/ml),B1
2,no binding (tested: 5 ug/ml),B2
3,no binding (tested: 5 ug/ml),B3
4,no binding (tested: 5 ug/ml),B4
5,no binding (tested: 5 ug/ml),B5
6,no binding (tested: 5 ug/ml),B6
7,no binding (tested: 5 ug/ml),B7

# Molecular target: T2, raCDH19(1-43)::FLAG::raCDH19(44-770), …
# Assay: FACS, transfected 293T
# Procedure: as §1
row,binding result,Binder
1,binds,B1
2,binds,B2
3,binds,B3
4,no binding (tested: 5 ug/ml),B4
5,no binding (tested: 5 ug/ml),B5
6,no binding (tested: 5 ug/ml),B6

# Molecular target: T3, rhCDH19(1-43)::FLAG::rhCDH19(44-772), …
# Assay: FACS, transfected 293T
# Procedure: as §1
row,binding result,Binder
1,binds,B1
2,binds,B2
3,binds,B3
4,binds,B4
5,binds,B5
6,binds,B6
7,binds,B7
